The nature of this series: protein stability index of a GFP-peptide fusion (GPS, HEK-293T) (PSI 1-6); higher = more stable.
The mark [1] stands for this setting: treatment: DMSO, c terminus: a fixed tail appended.
[2] abbreviates: treatment: MLN4924 1 uM, 8 h, c terminus: a fixed tail appended.
[3] abbreviates: treatment: DMSO, c terminus: native.
Where [4] appears, read: treatment: MLN4924 1 uM, 8 h, c terminus: native.

± gives the standard deviation.
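Also: 24-mer peptide tiles fused after GFP, lentivirally expressed, FACS-sorted into six equal bins by GFP/DsRed ratio, decoded by Illumina sequencing, PSI is the read-weighted mean bin number.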

Turning to CLLGLGSLVLILSLSYTVLIVGRI [SLC2A12], the protein stability index under setting [1] is 3.06 ± 0.48 and the protein stability index under setting [2] worked out at 3.26 ± 0.38.

As to CLTLATAVVQLYLALPPGAEHWTK [WAS], the protein stability index by setting is: under setting [1], 2.85 ± 0.87; under setting [2], 2.77 ± 0.28.

In the case of CPWHYLHLSGSHNTLAPTCFKAKL [RSPH3], the protein stability index was determined as 2.35 ± 0.23 under setting [1] and 2.59 ± 0.13 under setting [2].

Turning to CQDSSGEVSCQCQLHPPRWYSRLQ, the protein stability index by setting is: under setting [1], 2.38 ± 0.28; under setting [2], 2.81 ± 0.23.

As for CSSPGVQACSLPASCCIDPREDGA [TSPAN10], the protein stability index is 4.687 ± 0.023 under setting [1] and 4.6 ± 0.1 under setting [2].

CSVRPDASVSSHRFFGPNAEISQP [TCF25]: the protein stability index reads like this: under setting [1], 3.57 ± 0.32; under setting [2], 3.73 ± 0.092.

As for CYNCEEEAMYHCCWNTSYCSIKCQ [ZMYND11], the protein stability index came to 2.61 ± 0.52 under setting [1] and 2.79 ± 0.47 under setting [2].

DAKARKQEIIKTTEQLIEAVNNGD [CAMK2B] displayed a protein stability index under setting [1] of 5.27 ± 0.29 and a protein stability index under setting [2] of 5.26 ± 0.19.

For DALNAYVCKGLPQHEEICLGLFTL [INTS3], the protein stability index under setting [1] came out at 2.81 ± 0.64 and the protein stability index under setting [2] is 2.67 ± 0.74.

Turning to DANLDECIPATVRSSFANQGEICL [ALDH8A1], the protein stability index turned out to be 4.08 ± 0.35 under setting [1] and 4.19 ± 0.41 under setting [2].

Take DAPLHSVGYTTLVGNNHESWGWDL [SPSB1]: the protein stability index reads like this: under setting [1], 2.9 ± 0.16; under setting [2], 2.85 ± 0.25.

As to DATQEYKEKLQKCLEPLEQKLQEI [TRIM39], the protein stability index stood at 4.8 ± 0.055 under setting [1] and 5.02 ± 0.18 under setting [2].

For the sequence DCAGSPQKPLCASDGRTFLSRCEF [SMOC2], the protein stability index runs as follows: under setting [1], 3.05 ± 0.48; under setting [2], 3.27 ± 0.36.

Take DCLQFYVNSTLKELRRLFLVQDLV [RTN1]: the protein stability index under setting [1] was 2.99 ± 0.61 and the protein stability index under setting [2] came to 2.81 ± 0.76.

Take DDVIVQGDIQELYDTTLALGHAAA [GLT8D2]: the protein stability index reads like this: under setting [1], 4.47 ± 0.39; under setting [2], 4.42 ± 0.088.

In turn, DFALHYCLHHVHYLATEYLETHFR [GAN] had a protein stability index under setting [1] of 3.08 ± 0.24 and a protein stability index under setting [2] of 3.11 ± 0.23.

As to DFALINKLDIQCDLKTLSDDIKES [ATE1], the protein stability index by setting is: under setting [1], 4.15 ± 0.14; under setting [2], 4.18 ± 0.39.

For the sequence DFYRCGYCKNESGSRSNGMWAHSM [ATE1], the protein stability index runs as follows: under setting [1], 2.56 ± 0.59; under setting [2], 2.2 ± 0.13.

On to DGDKNNDGRIDFDEFLKMMEGVQ [TNNC2], for which the protein stability index is, setting by setting: under setting [3], 4.63 ± 0.43; under setting [4], 4.54 ± 0.42.

Turning to DGKLRLLTKLLASKSKEEVSSLIS [FEM1C], the protein stability index reads like this: under setting [1], 2.33 ± 0.28; under setting [2], 1.92 ± 0.39.

Sequence DGMLYILGGEDGEKELISMECYDI [GAN] had a protein stability index under setting [1] of 2.05 ± 0.18 and a protein stability index under setting [2] of 2.26 ± 0.42.

As to DIVEFVCKSGYHPTKSHSFRAMCQ [CFHR2], the protein stability index was determined as 2.49 ± 0.7 under setting [1] and 2.09 ± 0.18 under setting [2].

Regarding DKDDEEKPKIEDVGSDEEDDSGKD [HSP90AB1], the protein stability index was 5.57 ± 0.34 under setting [1] and 5.54 ± 0.062 under setting [2].

Consider DKEGHLVCRIGDWLQERYEIVGNL [CLK3], for which the protein stability index reads like this: under setting [1], 2.8 ± 0.56; under setting [2], 2.89 ± 0.47.

Take DKERAVLLQRRKRENMSDGDTSAT [KMT2E]: the protein stability index was 5.27 ± 0.062 under setting [1] and 5.39 ± 0.19 under setting [2].

Consider DKLDGNELDLSLSDLNEVPVKELA [LRRC59], for which the protein stability index by setting is: under setting [1], 5.26 ± 0.093; under setting [2], 5.34 ± 0.33.

For the sequence DKPLMPYMRYSRKVWDQVKASNPD [SMARCE1], the protein stability index by setting is: under setting [1], 3.27 ± 0.53; under setting [2], 3.44 ± 0.17.

For the sequence DLALDLGPQSRELTLKVLRSSSCG [C2CD2L], the protein stability index was found to be 3.28 ± 0.18 under setting [1] and 3.62 ± 0.34 under setting [2].

Regarding DLEELSLGPRDAGTRGRLESAQAT [ARFIP2], the protein stability index was 5.14 ± 0.083 under setting [1] and 5.06 ± 0.1 under setting [2].

On to DLSMKGGASTTSTTPSALSGEPPT [NOL4L], for which the protein stability index runs as follows: under setting [1], 5.16 ± 0.32; under setting [2], 5.28 ± 0.28.

For the sequence DNSTMGYMMAKKHLEINPDHPIVE [HSP90AB1], the protein stability index is 4.21 ± 0.21 under setting [1] and 4.05 ± 0.28 under setting [2].

Turning to DNWDEKKLEEVVNKKHGEAEKKKP [ZC3H15], the protein stability index is, setting by setting: under setting [1], 5.48 ± 0.48; under setting [2], 5.75 ± 0.25.

Take DPANCDYVIVSGAQRKEERWDMAD [YJU2B]: the protein stability index reads like this: under setting [1], 4.74 ± 0.3; under setting [2], 4.63 ± 0.16.

For DPDEEHLKKSSQVPRTEAPAPASS [PDLIM7], the protein stability index under setting [1] came to 5.39 ± 0.17 and the protein stability index under setting [2] is 5.5 ± 0.25.

Consider DPEDFEDAWKRPDALPGQSKRLAV [TLE6], for which the protein stability index runs as follows: under setting [1], 5.08 ± 0.18; under setting [2], 4.83 ± 0.29.

With DPLSLLDDSKFPIEDTPLVPVSFI [PCDHGA10], the protein stability index under setting [1] was 2.85 ± 0.49 and the protein stability index under setting [2] turned out to be 2.97 ± 0.3.

Turning to DPSIFTAQPNTMLGRMFGSGREHN [BTBD10], the protein stability index came to 3.95 ± 0.27 under setting [1] and 3.79 ± 0.28 under setting [2].

As to DPVVNGERSGCALTDAVAPGNKGR [TCF25], the protein stability index under setting [1] came to 5.21 ± 0.21 and the protein stability index under setting [2] was determined as 5.32 ± 0.21.

Take DRGDYYLEGYRDNAYKDLAWKHGN [PCMTD1]: the protein stability index by setting is: under setting [1], 3.18 ± 0.2; under setting [2], 3.29 ± 0.19.

Turning to DSKIVVPPLPGKALKRQLPFRGDE [SNX12], the protein stability index came out at 4.35 ± 0.21 under setting [1] and 4.36 ± 0.1 under setting [2].

DSLLVVLDMDEGTLSFIVDGQYLG [SPSB4]: the protein stability index reads like this: under setting [1], 2.52 ± 0.53; under setting [2], 2.6 ± 0.69.

Turning to DSPSRSPSKVEVTEKTTTVLSESS [C2CD2L], the protein stability index by setting is: under setting [1], 5.59 ± 0.24; under setting [2], 5.38 ± 0.19.

The sequence DSVPFHLGWNSTERSLRLQARYHD [MYORG] showed a protein stability index under setting [1] of 3.59 ± 0.24 and a protein stability index under setting [2] of 3.51 ± 0.17.

Consider DTAEVYAAGKAEVVLGNIIKKKGW [KCNAB2], for which the protein stability index by setting is: under setting [1], 3.71 ± 0.21; under setting [2], 3.86 ± 0.11.

DVKVGGSKYGIINLQSLKTPTLKV [DCAF4] displayed a protein stability index under setting [1] of 2.62 ± 0.2 and a protein stability index under setting [2] of 2.65 ± 0.28.

Take DYIIRNTDRGNDNWLIKYDCPMDS [PI4K2A]: the protein stability index reads like this: under setting [1], 2.81 ± 0.25; under setting [2], 2.88 ± 0.12.

Sequence DYPVQVAPLSNGLCCAFSTDGSVL [WSB1] came in with a protein stability index under setting [1] of 2.66 ± 0.27 and a protein stability index under setting [2] of 2.96 ± 0.32.

Turning to DYPYSPPTFRFLTKMWHPNIYENG [UBE2R2], the protein stability index was 2.21 ± 0.41 under setting [1] and 2.3 ± 0.13 under setting [2].

With EAAGGDHETESTSDKETDIDDRYG [CDS1], the protein stability index worked out at 5.6 ± 0.09 under setting [1] and 5.62 ± 0.22 under setting [2].

EAASSSSTLVEVTLGEVPAAESPD [MAGEA3]: the protein stability index reads like this: under setting [1], 5.41 ± 0.15; under setting [2], 5.49 ± 0.12.

EAPALPAPAAPMVSKGAESSRSSE [BRD3] had a protein stability index under setting [1] of 5.56 ± 0.32 and a protein stability index under setting [2] of 5.73 ± 0.25.

Consider EAQLSLIRDIRRRGKNKMAAQNCR [NFE2L1], for which the protein stability index is 3.61 ± 0.35 under setting [1] and 3.58 ± 0.22 under setting [2].

Sequence EAQTSGKERLLLSAAVPAGQTYVD [CHIT1] had a protein stability index under setting [1] of 4.15 ± 0.41 and a protein stability index under setting [2] of 4.3 ± 0.26.

Take EATSHYIIELLASDAGSPSLHKHL [PCDHGC5]: the protein stability index was 2.08 ± 0.064 under setting [1] and 2.12 ± 0.11 under setting [2].

As for EAWRLVEEGIVSPSDLDLVMSEGL [CRYL1], the protein stability index under setting [1] came to 3.91 ± 0.058 and the protein stability index under setting [2] turned out to be 3.9 ± 0.16.

Turning to ECQLYPRRSQQQQVPVVDFQAELR [SNURF], the protein stability index worked out at 4.3 ± 0.18 under setting [1] and 4.31 ± 0.084 under setting [2].

Regarding EDDKLVVECVMKGVTSTRVYERA [FABP4], the protein stability index is 3.03 ± 0.29 under setting [3] and 3.75 ± 0.42 under setting [4].

Regarding EDEGVDLSEGSSNEDEDLGPCEGP [SPANXN3], the protein stability index is, setting by setting: under setting [1], 5.39 ± 0.44; under setting [2], 5.41 ± 0.23.

As to EDSLATVKVVLIPVGQEIVIPFKV [IQUB], the protein stability index reads like this: under setting [1], 2.86 ± 1.3; under setting [2], 2.43 ± 0.98.

Turning to EEALENGPKESLPVIAAPSMWTRP [ACBD3], the protein stability index is, setting by setting: under setting [1], 4.64 ± 0.12; under setting [2], 4.47 ± 0.24.

As for EEERAFWMENNGHVAGEQMLEDGP [CCDC70], the protein stability index is, setting by setting: under setting [1], 5.37 ± 0.35; under setting [2], 5.2 ± 0.45.

For EELAKKRFKDKSSEEAVREVHRLI [TPPP], the protein stability index reads like this: under setting [1], 3.54 ± 0.24; under setting [2], 3.41 ± 0.27.

Regarding EELAYLKKNHEEEMKEFSSQLAGQ [KRT15], the protein stability index is 5.22 ± 0.41 under setting [1] and 5.05 ± 0.28 under setting [2].

Consider EELEFQYRRVNELLLSILNPTRQD [ZER1], for which the protein stability index came out at 3.01 ± 0.26 under setting [1] and 3.04 ± 0.31 under setting [2].

In turn, EELLWRKVYYEVIQLIKTNKKHIH [SMG5] registered a protein stability index under setting [1] of 2.8 ± 0.59 and a protein stability index under setting [2] of 2.4 ± 0.39.

Consider EEMEEEEEEEEEEDEDDDSADMDE [FBXO3], for which the protein stability index is, setting by setting: under setting [1], 5.57 ± 0.15; under setting [2], 5.59 ± 0.087.

Turning to EERFRPLTFHGLILRSQLVTLLVR [CLCN6], the protein stability index turned out to be 2.79 ± 0.63 under setting [1] and 2.51 ± 0.36 under setting [2].

Regarding EERLKLSPSPSSRVTVSRASSSRS [LMNB1], the protein stability index is, setting by setting: under setting [1], 4.94 ± 0.15; under setting [2], 5.03 ± 0.25.

EFLTKHLRADNAFMLLTQARLFDE [BTBD1]: the protein stability index was found to be 2.54 ± 0.25 under setting [1] and 2.18 ± 0.36 under setting [2].

On to EGAVKMGMPSSLAHRIAAQTLLGT [PYCR3], for which the protein stability index amounted to 3.08 ± 0.53 under setting [1] and 3.39 ± 0.17 under setting [2].

Turning to EGSFNGSEKETMQFLNDRLASYLE [KRT33B], the protein stability index under setting [1] was 3.43 ± 0.14 and the protein stability index under setting [2] came out at 3.34 ± 0.21.

For the sequence EHGATLAVIDSEKDMNFLKRYAGR [CD69], the protein stability index came to 3.84 ± 0.34 under setting [1] and 3.95 ± 0.27 under setting [2].

The record behind these values is the supplement of paper PMC10567573.
